# Values of other authors in article PMC10925690.
# Columns and labels:
# [1] = biological target: FcγRIIIa F158 (Homo sapiens) (UniProt P08637); assay: SPR; settings: cited from earlier work
# [2] = biological target: FcγRIIIa V158 (Homo sapiens) (UniProt P08637); assay: SPR; settings: cited from earlier work
# Chain of FcγRIIIa V158 (Homo sapiens) (P08637 17-254): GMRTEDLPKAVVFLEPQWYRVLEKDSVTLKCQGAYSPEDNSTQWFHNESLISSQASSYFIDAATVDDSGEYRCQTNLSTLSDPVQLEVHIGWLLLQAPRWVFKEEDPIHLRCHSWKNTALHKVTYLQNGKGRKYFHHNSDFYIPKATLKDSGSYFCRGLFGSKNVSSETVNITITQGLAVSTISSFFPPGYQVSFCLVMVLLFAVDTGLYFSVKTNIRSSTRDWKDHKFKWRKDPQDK
# Chain of FcγRIIIa F158 (Homo sapiens) (P08637 17-254): as above
substance,measurement,setting,value
IgG1 Fc Fc (from UniProt P01857),Kd,[1],2.5 µM
same,Kd,[2],0.4 µM
